T1: biotin-labeled human ADM (human, not fully specified; biotin label (named human ADM-C-biotin in Example 1.4; position of the biotin not stated for the other lots))
T1 construct: Synthetic peptide; also called human ADM-C-biotin; hADM-Biotin
T1 peptide: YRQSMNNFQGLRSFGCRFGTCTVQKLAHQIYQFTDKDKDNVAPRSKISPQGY

T2: biotin-labeled mouse ADM (mouse, not fully specified; biotin label (named mouse ADM-C-biotin in Example 1.4; position of the biotin not stated for the other lots))
T2 construct: Synthetic peptide; also called mouse ADM-C-biotin; mADM-Biotin
T2 peptide: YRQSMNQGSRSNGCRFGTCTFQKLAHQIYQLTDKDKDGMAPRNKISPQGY

B1: fully human antibody Ab2004.Am01 (expressed antibody) (antibody, V domains shown)
VH: QVQLVQSGAEVKKPGASVKVSCKASGYTFTSYGISWVRQAPGQGLEWMGWISAYQGNTNYAQKLQGRVTMTRDTSTSTAYMELRSLRSDDTAVYYCAREGRWGGSFNIWGQGTMVTVSS
VL: DIQMTQSPSSLSASVGDRVTITCRASQGISSYLAWYQQKPGKAPKLLIYDASNLETGVPSRFSGSGSGTDFTFTISSLQPEDIATYYCQQYDNLPLTFGGGTKVEIK
notes: also called parent antibody Ab2004.Am01
B2: Ab2004.Am32 (Fab displayed on yeast) (Fab, V domains shown)
VH: B1 VH with S31Q, S35A
VL: B1 VL with S26A, Q27E, S30G
notes: Yeast monoclonal colony of library JYYDL227 (Fab display)
B3: Ab2004.Am01 (Fab displayed on yeast) (Fab, V domains shown)
VH: B1 VH
VL: B1 VL
B4: Ab2004.Am38 (Fab displayed on yeast) (Fab, V domains shown)
VH: B1 VH with A53P, Q55T, N57K
VL: B1 VL with A51T, N53D, E55D
notes: as for B2
B5: Ab2004.Am33 (Fab displayed on yeast) (Fab, V domains shown)
VH: B1 VH with A53P, Q55S
VL: B1 VL with Q27E, S31E
notes: as for B2
B6: Ab2004.Am40 (Fab displayed on yeast) (Fab, V domains shown)
VH: B1 VH with S31Q, S35A
VL: B1 VL with N93D, T97S
notes: as for B2
B7: Ab2004.Am36 (Fab displayed on yeast) (Fab, V domains shown)
VH: B1 VH with S31Q, S35A
VL: B1 VL with L54V, E55D
notes: as for B2
B8: Ab2004.Am37 (Fab displayed on yeast) (Fab, V domains shown)
VH: B1 VH with A53P, Q55T, N57K
VL: B1 VL with A51V, N53I, E55D, T56A
notes: as for B2
B9: Ab2004.Am31 (Fab displayed on yeast) (Fab, V domains shown)
VH: B1 VH with S31Q, S35A
VL: B1 VL with Q27E, S31E
notes: as for B2
B10: Ab2004.Am34 (Fab displayed on yeast) (Fab, V domains shown)
VH: B1 VH with S31H, S35A
VL: B1 VL with A51V, N53I, E55D, T56A
notes: as for B2
B11: Ab2004.Am35 (Fab displayed on yeast) (Fab, V domains shown)
VH: B1 VH with S31Q, S35A
VL: B1 VL with A51V, N53I, E55D, T56A
notes: as for B2
B12: Ab2004.Am39 (Fab displayed on yeast) (Fab, V domains shown)
VH: B1 VH with S31H, S35A
VL: B1 VL with N93D, P95D
notes: as for B2
B13: chimeric antibody 2004hz00 (antibody, human IgG1, kappa)
heavy: not shown
light: DVLMTQTPFSLPVSLGDQASISCRSSQSIIDSDGNTYLEWYLQKPGQSPKLLIYKVSNRFSGVPDRFSGSGSGTDFTLRISRVEAEDLGVYYCFQGSHFPYTFAGGTKLELKRTVAAPSVFIFPPSDEQLKSGTASVVCLLNNFYPREAKVQWKVDNALQSGNSQESVTEQDSKDSTYSLSSTLTLSKADYEKHKVYACEVTHQGLSSPVTKSFNRGEC
notes: Human IgG1/kappa
B14: humanized antibody 2004hz97 (antibody, human IgG1, kappa)
heavy: not shown
light: DVVMTQSPLSLPVTLGQPASISCRSSQSIIDSDGNTYLEWYQQRPGQSPRLLIYKVSNRFSGVPDRFSGSGSGTDFTLKISRVEAEDFGVYYCFQGSHFPYTFGQGTKLEIKRTVAAPSVFIFPPSDEQLKSGTASVVCLLNNFYPREAKVQWKVDNALQSGNSQESVTEQDSKDSTYSLSSTLTLSKADYEKHKVYACEVTHQGLSSPVTKSFNRGEC
notes: Human IgG1/kappa
B15: humanized antibody 2004hz99 (antibody, human IgG1, kappa)
heavy: not shown
light: B14 light with V3L, G104A
notes: Human IgG1/kappa

Positions count from the first letter of the chain named.

One test deals with T1, biotin-labeled human ADM. The test is described as follows: BLI (Octet RED96e), as in Example 3. On the procedure: (§1) The affinity of antibodies 2004hz00, 2004hz97, and 2004hz99 for biotin-labeled human and mouse ADM (human ADM Cat. No. 894757, mouse ADM Cat. No. 894758, synthesized by GLBiochem) was determined by adopting Octet RED96e (Fortebio). The antigens and the antibodies were all diluted with 1× PBST (1× PBS: Sangon, B548117-0500; 0.02% Tween 20: sigma, P1379), the concentration of the antibody used was 100 nM, and the concentration of the antigen used was 2 μg/mL. The candidate antibody sample was added to a 96-well plate (Greiner bio-one, 655209) at 200 μL/well, the software parameters were set, the temperature was 30° C., and the standard kinetic signal was collected at a frequency of 5.0 Hz; and an SA sensor (Fortebio, Cat. No. 18-5020) was pre-wetted with 1× PBST for 10 min and then tested on a machine.
(§2) The equilibrium dissociation constants (KD) of the antibodies were calculated by measuring the association rates (Kon) and the dissociation rates (Koff) of the antigen-antibody in a 1:1 binding manner by adopting the Data Analysis 12.0 software from Fortebio.
(§3) Similar to Example 3, the affinity of the affinity-matured antibodies Ab2004.Am31 -Ab2004.Am40 and the parent antibody Ab2004.Am01 for human and mouse ADM was further determined, respectively, and the results are shown in Table 10. It can be seen from Table 10 […].
(Biolayer interferometry detects binding as a change in optical thickness at a sensor tip.)
As usually defined, the Kd is the concentration at which binding is half-saturated. The low end stands for higher affinity, the high end for lower affinity. A word on the koff: it is a measure of how fast the partners let go of each other. Usually kon stands for the second-order rate constant of association. Lower therefore signals slower complex formation. Turning to B1, binding was put at a Kd of 0.766 nM, the Response value is 2.34, the koff turned out to be 0.000233 s⁻¹ and the on-rate (kon) was 305000 M⁻¹ s⁻¹.

The next test addresses T2, biotin-labeled mouse ADM. Description: BLI (Octet RED96e), as in Example 3. On the procedure: as §1, §2, §3
For B1, the Kd is 2.21 nM, the Response value was 2.35, the koff was 0.000956 s⁻¹ and the on-rate constant (kon) was determined as 434000 M⁻¹ s⁻¹.

Another test concerns the target T1, biotin-labeled human ADM. The test is described as follows: flow staining of yeast-displayed Fab at graded antigen concentrations. An excerpt: (§4) For the first round of screening products of JYYDL227, 46 monoclones were picked for sequencing, and finally, a yeast monoclonal colony with a unique sequence was obtained for EC₅₀ identification by flow staining.
(§5) According to the staining results of the clones (as shown in Table 6) in combination with the similarity of the sequences of the clones, the monoclones expressing antibodies Ab2004.Am31 (with amino acid sequences of variable regions set forth in SEQ ID NOs: 31 and 36), Ab2004.Am32 (with amino acid sequences of variable regions set forth in SEQ ID NOs: 31 and 37), Ab2004.Am33 (with amino acid sequences of variable regions set forth in SEQ ID NOs: 32 and 36), Ab2004.Am34 (with amino acid sequences of variable regions set forth in SEQ ID NOs: 33 and 38), Ab2004.Am35 (with amino acid sequences of variable regions set forth in SEQ ID NOs: 31 and 38), Ab2004.Am36 (with amino acid sequences of variable regions set forth in SEQ ID NOs: 31 and 39), Ab2004.Am37 (with amino acid sequences of variable regions set forth in SEQ ID NOs: 34 and 38), Ab2004.Am38 (with amino acid sequences of variable regions set forth in SEQ ID NOs: 34 and 40), Ab2004.Am39 (with amino acid sequences of variable regions set forth in SEQ ID NOs: 33 and 41), and Ab2004.Am40 (with amino acid sequences of variable regions set forth in SEQ ID NOs: 31 and 42) were finally selected. The amino acid sequences of the Chothia-numbered CDRs of the candidate antibodies are shown in Table 7, and the amino acid sequences of the light and heavy chain variable regions of the candidate antibodies are shown in Table 8.
A word on the EC50: it is the concentration that produces a half-maximal response. For B2, the EC50 came to 0.41 nM.
Still for that read-out and setting: with B3 the figure was 4 nM; with B4, 0.74 nM.
On to B5, for which the concentration for a half-maximal effect (EC50) was found to be 0.79 nM.
In the case of B6, the concentration for a half-maximal effect (EC50) was determined as 0.5 nM.
In the case of B7, the EC50 was 1.73 nM.
Still for that read-out and setting: with B8 the figure was 0.88 nM.
With B9, the EC50 was found to be 0.45 nM.
For B10, the EC50 stood at 1.06 nM.
Turning to B11, the EC50 came out at 1.47 nM.
On to B12, for which the concentration giving a half-maximal response (EC50) was found to be 0.86 nM.

The target in another test is T2, biotin-labeled mouse ADM. The description is as above.
Source text: as §4, §5
As for B2, the EC50 was 2.2 nM.
Take B3: the concentration giving a half-maximal response (EC50) was found to be 88.2 nM.
B4: the EC50 turned out to be 14.3 nM.
The same measure, in the same setting: to B5 belongs 15 nM.
For B6, the EC50 turned out to be 2.5 nM.
Regarding B7, the concentration giving a half-maximal response (EC50) was found to be 2.67 nM.
With B8, the EC50 was 6.74 nM.
Consider B9, for which the EC50 came out at 1.66 nM.
For the molecule B10, the concentration for a half-maximal effect (EC50) amounted to 4.43 nM.
Consider B11, for which the EC50 stood at 2.26 nM.
Same read-out and setting: with B12 the figure was 4.23 nM.

The target of another test is T1, biotin-labeled human ADM. The test is described as follows: BLI (Octet RED96e), biotinylated antigen on SA sensor, antibody 100 nM, 1:1 fit. On the procedure:
as §1, §2
In the case of B13, the Kd was 0.457 nM, the Response value came to 2.69, the koff came to 0.000201 s⁻¹ and the kon was determined as 441000 M⁻¹ s⁻¹.
Regarding B14, the Kd was 0.546 nM, the Response value was 2.39, the off-rate (koff) is 0.000252 s⁻¹ and the kon came out at 461000 M⁻¹ s⁻¹.
B15 returned a dissociation constant (Kd) of 0.429 nM, a Response value of 2.58, a koff of 0.000201 s⁻¹ and a kon of 468000 M⁻¹ s⁻¹.

The next test concerns the target T2, biotin-labeled mouse ADM. The description is as above. On the procedure:
as §1, §2
Take B13: the Kd was determined as 0.454 nM, the Response value was determined as 3.19, the dissociation rate constant (koff) stood at 0.000196 s⁻¹ and the kon was 432000 M⁻¹ s⁻¹.
For B14, the affinity, expressed as Kd, was 0.489 nM; the Response value stood at 3; the koff came to 0.000231 s⁻¹; the kon was 472000 M⁻¹ s⁻¹.
Turning to B15, the dissociation constant (Kd) was determined as 0.418 nM, the Response value came to 3.06, the dissociation rate constant (koff) turned out to be 0.000194 s⁻¹ and the kon came out at 465000 M⁻¹ s⁻¹.

These data come from US20260035456A1 (SHANGHAI JEYOU PHARMACEUTICAL, published 2026).
